Assay results taken from article PMC9482650, “Quantitative fragmentomics allow affinity mapping of interactomes” (Nature Communications, 2022).

Legend:
Assay in all cases: holdup assay
Parameters in all cases: key: below the threshold = too weak to quantify, mostly under pKd 3.1 to 4
Conditions in all cases: plain residues with an end cap or a label only (N-terminal biotin on a linker: ttds)
DLG2_1, Q15700 = target: DLG2_1, Q15700
DVL1, O14640 = target: T1, DVL1, O14640
T1 sequence (O14640 246-333, limits assumed, looked up): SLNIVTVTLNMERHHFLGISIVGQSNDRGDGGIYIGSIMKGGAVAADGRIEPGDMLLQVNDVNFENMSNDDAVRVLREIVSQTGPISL

IL16_2, Q14005 = target: IL16_2, Q14005
Sequence of IL16_2, Q14005 (Q14005 350-450): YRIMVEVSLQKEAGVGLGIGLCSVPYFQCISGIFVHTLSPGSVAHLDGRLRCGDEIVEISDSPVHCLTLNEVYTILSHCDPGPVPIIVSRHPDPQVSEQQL

INTU, Q9ULD6 = target: T2, INTU, Q9ULD6
T2 sequence (Q9ULD6 180-273, limits assumed, looked up): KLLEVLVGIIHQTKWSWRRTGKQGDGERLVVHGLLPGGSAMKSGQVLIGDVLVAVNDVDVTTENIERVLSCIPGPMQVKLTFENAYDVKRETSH

LIMK1, P53667 = target: LIMK1, P53667
Sequence of LIMK1, P53667 (P53667 155-268): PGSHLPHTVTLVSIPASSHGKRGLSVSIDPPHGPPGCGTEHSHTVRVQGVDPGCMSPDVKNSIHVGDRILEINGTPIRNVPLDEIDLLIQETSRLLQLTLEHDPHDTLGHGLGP

MAGI3_4, Q5TCQ9 = target: MAGI3_4, Q5TCQ9
Sequence of MAGI3_4, Q5TCQ9 (Q5TCQ9 716-815): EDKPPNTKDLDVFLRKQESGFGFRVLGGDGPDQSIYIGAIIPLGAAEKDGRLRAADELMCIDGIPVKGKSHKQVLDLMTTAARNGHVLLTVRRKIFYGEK

MAGI3_5, Q5TCQ9 = target: MAGI3_5, Q5TCQ9
Sequence of MAGI3_5, Q5TCQ9 (Q5TCQ9 847-941): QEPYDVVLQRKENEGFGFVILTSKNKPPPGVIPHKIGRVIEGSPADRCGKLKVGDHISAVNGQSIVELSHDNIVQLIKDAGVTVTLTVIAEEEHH

MPDZ_11, O75970 = target: T3, MPDZ_11, O75970
T3 sequence (O75970 1720-1817, limits assumed, looked up): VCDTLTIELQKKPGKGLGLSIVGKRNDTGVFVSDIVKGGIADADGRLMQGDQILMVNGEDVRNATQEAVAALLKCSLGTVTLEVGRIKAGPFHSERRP

MPDZ_13, O75970 = target: T4, MPDZ_13, O75970
T4 sequence (O75970 1982-2070, limits assumed, looked up): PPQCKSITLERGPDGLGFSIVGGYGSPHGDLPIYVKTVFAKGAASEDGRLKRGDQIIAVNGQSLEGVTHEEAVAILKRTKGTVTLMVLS

MPP1, Q00013 = target: T5, MPP1, Q00013
T5 sequence (Q00013 66-162, limits assumed, looked up): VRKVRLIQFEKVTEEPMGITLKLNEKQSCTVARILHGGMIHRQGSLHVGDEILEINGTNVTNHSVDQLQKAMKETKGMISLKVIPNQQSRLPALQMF

NHERF3_2, Q5T2W1 = target: T6, NHERF3_2, Q5T2W1
T6 sequence (Q5T2W1 129-225, limits assumed, looked up): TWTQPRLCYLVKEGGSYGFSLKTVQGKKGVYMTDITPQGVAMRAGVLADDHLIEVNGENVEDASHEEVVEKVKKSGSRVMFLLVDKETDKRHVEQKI

PARD3B_2, Q8TEW8 = target: PARD3B_2, Q8TEW8
Sequence of PARD3B_2, Q8TEW8 (Q8TEW8 376-471): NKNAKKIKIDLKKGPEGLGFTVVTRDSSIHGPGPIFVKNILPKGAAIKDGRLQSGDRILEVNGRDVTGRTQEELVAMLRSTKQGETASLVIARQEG

PDZD2_1, O15018 = target: T7, PDZD2_1, O15018
T7 sequence (O15018 80-192, limits assumed, looked up): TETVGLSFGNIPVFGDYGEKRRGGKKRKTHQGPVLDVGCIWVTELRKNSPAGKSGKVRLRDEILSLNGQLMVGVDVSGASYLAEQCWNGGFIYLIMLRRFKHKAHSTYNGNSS

PDZD2_3, O15018 = target: T8, PDZD2_3, O15018
T8 sequence (O15018 581-682, limits assumed, looked up): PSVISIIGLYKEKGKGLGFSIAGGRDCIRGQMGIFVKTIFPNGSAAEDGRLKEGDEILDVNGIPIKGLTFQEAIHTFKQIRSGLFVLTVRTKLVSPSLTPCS

PDZD2_6, O15018 = target: T9, PDZD2_6, O15018
T9 sequence (O15018 2745-2839, limits assumed, looked up): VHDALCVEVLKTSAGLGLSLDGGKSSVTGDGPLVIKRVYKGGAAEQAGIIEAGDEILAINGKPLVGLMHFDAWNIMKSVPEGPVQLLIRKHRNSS

PTPN13_4, Q12923 = target: T10, PTPN13_4, Q12923
T10 sequence (Q12923 1783-1878, limits assumed, looked up): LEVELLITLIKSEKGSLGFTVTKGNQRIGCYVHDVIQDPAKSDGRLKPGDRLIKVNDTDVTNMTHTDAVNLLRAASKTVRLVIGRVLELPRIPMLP

PTPN13_5, Q12923 = target: T11, PTPN13_5, Q12923
T11 sequence (Q12923 1877-1975, limits assumed, looked up): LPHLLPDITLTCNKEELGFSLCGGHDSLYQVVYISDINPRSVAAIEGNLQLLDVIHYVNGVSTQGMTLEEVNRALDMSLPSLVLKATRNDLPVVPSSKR

Q70Z35 = target: Q70Z35
Q8TB45 = target: Q8TB45
Q8TDM6 = target: Q8TDM6
Q8TEW0 = target: Q8TEW0
Q92614 = target: Q92614
Q9UDY2 = target: Q9UDY2
SHANK2, Q9UPX8 = target: T12, SHANK2, Q9UPX8
T12 sequence (Q9UPX8 621-730, limits assumed, looked up): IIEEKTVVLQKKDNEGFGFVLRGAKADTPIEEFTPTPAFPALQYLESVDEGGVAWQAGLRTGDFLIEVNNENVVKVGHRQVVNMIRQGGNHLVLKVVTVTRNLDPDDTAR

SYNPO2L, Q9H987 = target: T13, SYNPO2L, Q9H987
T13 sequence (Q9H987 1-98, limits assumed, looked up): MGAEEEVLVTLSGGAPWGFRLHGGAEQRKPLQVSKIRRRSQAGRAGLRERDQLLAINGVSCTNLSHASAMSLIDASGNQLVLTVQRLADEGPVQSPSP

PSRDRKETSI [RALBP1, Q15311]
pKd (DLG2_1, Q15700): 4.34 | pKd (DVL1, O14640): below the threshold | pKd (IL16_2, Q14005): below the threshold | pKd (INTU, Q9ULD6): below the threshold | pKd (LIMK1, P53667): 4.16 | pKd (MAGI3_4, Q5TCQ9): below the threshold | pKd (MAGI3_5, Q5TCQ9): below the threshold | pKd (MPDZ_11, O75970): below the threshold | pKd (MPDZ_13, O75970): below the threshold | pKd (MPP1, Q00013): 4.01 | pKd (NHERF3_2, Q5T2W1): below the threshold | pKd (PARD3B_2, Q8TEW8): 3.74 | pKd (PDZD2_1, O15018): below the threshold | pKd (PDZD2_3, O15018): below the threshold | pKd (PDZD2_6, O15018): below the threshold | pKd (PTPN13_4, Q12923): below the threshold | pKd (PTPN13_5, Q12923): below the threshold | pKd (Q70Z35): below the threshold | pKd (Q8TB45): below the threshold | pKd (Q8TDM6): below the threshold | pKd (Q8TEW0): below the threshold | pKd (Q92614): below the threshold | pKd (Q9UDY2): below the threshold | pKd (SHANK2, Q9UPX8): below the threshold | pKd (SYNPO2L, Q9H987): below the threshold
